Reference: US20240270821A1, “GIP/GLP1/GCG TRI-RECEPTOR AGONISTS AND USES THEREOF” (priority 2023, published 2024)
Residue numbers refer to the chain shown, from its start. Starred links: 1 amine or outer side, 2 acyl side, 3 side chain; linkers in the order of their positions; H or OH if unused. Non-standard residues stand in square brackets, D forms with d. Groups on a side chain read outwards from the residue. No end group written: not given here. *: point of attachment. C18 diacid = O=C(O)CCCCCCCCCCCCCCCCC(=O)*; γGlu = O=C(O)[C@H](CCC(=O)[*:2])N[*:1]; 4Pal = N[C@@H](Cc1ccncc1)C(=O)O; αMeL = CC(C)C[C@](C)(N)C(=O)O; Dab = NCC[C@H](N)C(=O)O; Dap = NC[C@H](N)C(=O)O; AEEA = NCCOCCOCC(=O)O; Aib = CC(C)(N)C(=O)O

B1: Example 669 (SEQ ID NO: 675) (peptide)
chain: YXQGTXTSDXSILLDKKAQXAFIEXLEEGGPSSGAPPPSGTGE
modifications: synthetic construct; SITE 2: note = 2-Aminoisobutyric Acid; SITE 6: note = alpha-methyl-2-fluoro-L-phenylalanine; SITE 10: note = 3-(4-Pyridyl)-L-alanine; SITE 17: note = Lysine is chemically modified through conjugation of the epsilon-amino group of the Lysine side chain with (2-[2-(2-Amino-ethoxy))
B2: Example 1117 (peptide)
chain: B1 chain with X6F, I12Q, L13X, E27I, G29X
modifications: non-natural residues; Lys acylated AEEA-γGlu-C18 diacid; C-terminal amide; synthetic construct; SITE 2: note = 2-Aminoisobutyric Acid; SITE 10: note = 3-(4-Pyridyl)-L-alanine; SITE 13: note = alpha-methyl-leucine; SITE 17: note = Lysine is chemically modified through conjugation of the epsilon-amino group of the Lysine side chain with (2-[2-(2-Amino-ethoxy)-ethoxy]-acetyl)
B3: Example 674 (SEQ ID NO: 680) (peptide)
chain: B1 chain with K16X, A21X
modifications: synthetic construct; SITE 2: note = 2-Aminoisobutyric Acid; SITE 6: note = alpha-methyl-2-fluoro-L-phenylalanine; SITE 10: note = 3-(4-Pyridyl)-L-alanine; SITE 16: note = L-ornithine; SITE 17: note = Lysine is chemically modified through conjugation of the epsilon-amino group of the Lysine side chai
B4: Example 1119 (peptide)
chain: B1 chain with X6F, I12Q, L13X, E27I, G29X
modifications: Aib, 4Pal, αMeL, Me4Pal; acylated Lys; C-terminal amide; synthetic construct; SITE 2: note = 2-Aminoisobutyric Acid; SITE 10: note = 3-(4-Pyridyl)-L-alanine; SITE 13: note = alpha-methyl-leucine; SITE 17: note = Lysine is chemically modified through conjugation of the epsilon-amino group of the Lysine side chain with (gamma-Glu)2-CO-(CH2)16-CO2H; SITE 20:
B5: Example 807 (peptide)
chain: YXQGTFTSDXSRXLDKKAQXAFIEYLIEXSPSSGAPPPSGS
modifications: synthetic construct; SITE 2: note = 2-Aminoisobutyric Acid; SITE 10: note = 3-(4-Pyridyl)-L-alanine; SITE 13: note = alpha-methyl-leucine; SITE 17: note = Lysine is chemically modified through conjugation of the epsilon-amino group of the Lysine side chain with (2-[2-(2-Amino-ethoxy)-ethoxy]-acetyl)
B6: Example 1120 (peptide)
chain: B5 chain with R12Q, Y25X, S30G, S41E
modifications: Aib, 4Pal, αMeL, Me4Pal; acylated K; C-terminal amide; synthetic construct; SITE 2: note = 2-Aminoisobutyric Acid; SITE 10: note = 3-(4-Pyridyl)-L-alanine; SITE 13: note = alpha-methyl-leucine; SITE 17: note = Lysine is chemically modified through conjugation of the epsilon-amino group of the Lysine side chain with (gamma-Glu)2-CO-(CH2)16-CO2H; SITE 20:
B7: Example 1132 (peptide)
chain: YXQGTFTSDXXQXLDXKAQXQFIQXLIAXGPSSGAPPPSGGGE
modifications: not fully specified; Lys acylated γGlu-C18 diacid; non-natural residues; C-amide; synthetic construct; SITE 2: note = 2-Aminoisobutyric Acid; SITE 10: note = 3-(4-Pyridyl)-L-alanine; SITE 11: note = alpha-methyl-L-serine; SITE 13: note = alpha-methyl-leucine; SITE 16: note = L-ornithine; SITE 17: note = Lysine is chemically modified through conjugation of the epsilon-amino group
B8: Example 196 (peptide)
chain: YXQGTFTSDFSXXLDKKAQXAFIEYLLEGGPSSGAPPPGGS
modifications: not fully specified; free C-terminus (not amidated); synthetic construct; SITE 2: note = 2-Aminoisobutyric Acid; SITE 12: note = L-ornithine; SITE 13: note = alpha-methyl-leucine; SITE 17: note = Lysine is chemically modified through conjugation of the epsilon-amino group of the Lysine side chain with (2-[2-(2-Amino-ethoxy)-ethoxy]-acetyl)-(gamma-Glu)
B9: Example 875 (peptide)
chain: B8 chain with X12Q, L27I, E28A, G39S
modifications: synthetic construct; SITE 2: note = 2-Aminoisobutyric Acid; SITE 13: note = alpha-methyl-leucine; SITE 17: note = Lysine is chemically modified through conjugation of the epsilon-amino group of the Lysine side chain with (2-[2-(2-Amino-ethoxy)-ethoxy]-acetyl)-(gamma-Glu)-CO-(CH2) 16-CO2H; SITE 20: n
B10: Example 872 (peptide)
chain: B5 chain with R12Q, Y25W, X29G, S30G
modifications: synthetic construct; SITE 2: note = 2-Aminoisobutyric Acid; SITE 10: note = 3-(4-Pyridyl)-L-alanine; SITE 13: note = alpha-methyl-leucine; SITE 17: note = Lysine is chemically modified through conjugation of the epsilon-amino group of the Lysine side chain with (gamma-Glu)2-CO-(CH2)16-CO2H; SITE 20:
B11: Example 941 (peptide)
chain: B8 chain with F10X, Y25X, L27I, G39S
modifications: synthetic construct; SITE 2: note = 2-Aminoisobutyric Acid; SITE 10: note = 3-(4-Pyridyl)-L-alanine; SITE 12: note = L-ornithine; SITE 13: note = alpha-methyl-leucine; SITE 17: note = Lysine is chemically modified through conjugation of the epsilon-amino group of the Lysine side chain with (gamma-Gl)
B12: Example 876 (peptide)
chain: B8 chain with X12Q, L27I, E28A, G39S
modifications: not fully specified; synthetic construct; SITE 2: note = 2-Aminoisobutyric Acid; SITE 13: note = alpha-methyl-leucine; SITE 17: note = Lysine is chemically modified through conjugation of the epsilon-amino group of the Lysine side chain with (gamma-Glu)2-CO-(CH2)16-CO2H; SITE 20: note = 3-(4-Pyridyl)-L-alanine; SITE 41:
B13: Example 942 (peptide)
chain: B8 chain with F10X, Y25X, G39S
modifications: synthetic construct; SITE 2: note = 2-Aminoisobutyric Acid; SITE 10: note = 3-(4-Pyridyl)-L-alanine; SITE 12: note = L-ornithine; SITE 13: note = alpha-methyl-leucine; SITE 17: note = Lysine is chemically modified through conjugation of the epsilon-amino group of the Lysine side chain with (gamma-Gl)
B14: Example 938 (peptide)
chain: B8 chain with F10X, X12Q, Y25X, G39S
modifications: synthetic construct; SITE 2: note = 2-Aminoisobutyric Acid; SITE 10: note = 3-(4-Pyridyl)-L-alanine; SITE 13: note = alpha-methyl-leucine; SITE 17: note = Lysine is chemically modified through conjugation of the epsilon-amino group of the Lysine side chain with (gamma-Glu)2-CO-(CH2)16-CO2H; SITE 20:
B15: Example 841 (peptide)
chain: B8 chain with X12Q, Y25X, L27I, G39S
modifications: synthetic construct; SITE 2: note = 2-Aminoisobutyric Acid; SITE 13: note = alpha-methyl-leucine; SITE 17: note = Lysine is chemically modified through conjugation of the epsilon-amino group of the Lysine side chain with (2-[2-(2-Amino-ethoxy)-ethoxy]-acetyl)-(gamma-Glu)-CO-(CH2) 16-CO2H; SITE 20: n
B16: Example 803 (peptide)
chain: Y[Aib]QGTFTSD[4Pal]S[Dab][αMeL]LDKK([AEEA-γGlu-C18 diacid])AQ[Aib]AFIEYLIE[Aib]GPSSGAPPPSGS-NH2
B17: Example 203 (peptide)
chain: Y[Aib]QGTFTSDFS[Dap][αMeL]LDKK([γGlu-γGlu-C18 diacid])AQ[Aib]AFIEYLLE[Aib]GPSSGAPPPSGS-NH2
B18: Example 1116 (peptide)
chain: YXQGTFTSDXSQXLDKKAQXAFIEXLIEXGPSSGAPPPSGTE
modifications: acylated Lys AEEA-γGlu-C18 diacid; non-natural residues; C-terminal amide; synthetic construct; SITE 2: note = 2-Aminoisobutyric Acid; SITE 10: note = 3-(4-Pyridyl)-L-alanine; SITE 13: note = alpha-methyl-leucine; SITE 17: note = Lysine is chemically modified through conjugation of the epsilon-amino group of the Lysine side chain with (2-[2-(2-Amino-ethoxy)-ethoxy]-acetyl)
B19: Example 1126 (peptide)
chain: B18 chain with X25Y
modifications: non-natural residues; (γGlu)2-C18 diacid on Lys; C-terminal amide; synthetic construct; SITE 2: note = 2-Aminoisobutyric Acid; SITE 10: note = 3-(4-Pyridyl)-L-alanine; SITE 13: note = alpha-methyl-leucine; SITE 17: note = Lysine is chemically modified through conjugation of the epsilon-amino group of the Lysine side chain with (gamma-Glu)2-CO-(CH2)16-CO2H; SITE 20:

target: hGLP-1R (Homo sapiens, UniProt P43220); assay: cell-based or functional assay
Sequence (P43220 24-463): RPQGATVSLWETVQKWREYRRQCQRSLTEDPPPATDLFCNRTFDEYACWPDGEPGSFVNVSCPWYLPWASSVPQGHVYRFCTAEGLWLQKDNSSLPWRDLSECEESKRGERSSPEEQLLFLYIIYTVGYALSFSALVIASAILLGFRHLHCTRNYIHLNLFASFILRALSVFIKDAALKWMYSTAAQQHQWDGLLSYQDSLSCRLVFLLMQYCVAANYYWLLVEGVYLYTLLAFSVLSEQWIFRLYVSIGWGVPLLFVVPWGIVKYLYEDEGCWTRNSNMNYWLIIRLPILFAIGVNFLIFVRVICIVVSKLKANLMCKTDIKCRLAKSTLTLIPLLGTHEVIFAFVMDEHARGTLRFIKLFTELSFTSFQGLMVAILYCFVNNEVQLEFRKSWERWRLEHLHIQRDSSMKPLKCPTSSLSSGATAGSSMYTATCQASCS

Going from B1 to B2, the Relative cAMP EC50 rises from 0.27 nM to 3.51 nM (13-fold).

Compared with B3, B4 is 17-fold higher in Relative cAMP EC50: 0.21 nM for the first, 3.57 nM for the second.

Compared with B5, B6 is 2.6-fold higher in Relative cAMP EC50: 1.72 nM for the first, 4.5 nM for the second.

B7 and B9 are within 1.5-fold of each other in Relative cAMP EC50: 0.681 nM for the first, 0.771 nM for the second.

B10 and B11 are within 1.5-fold of each other in Relative cAMP EC50: 1.01 nM for the first, 0.764 nM for the second.

Going from B12 to B13, the Relative cAMP EC50 rises from 0.456 nM to 3.52 nM (7.7-fold).

Going from B14 to B15, the Relative cAMP EC50 falls from 1.84 nM to 0.336 nM (5.5-fold).

Going from B16 to B18, the Relative cAMP EC50 rises from 2.02 nM to 4.63 nM (2.3-fold).

B19 was tested, and the Relative cAMP EC50 was 4.56 nM.

B8 and B17 are within 1.5-fold of each other in cAMP Rel EC50, nM (1% HSA): 458 nM for the first, 532 nM for the second.

target: human glucagon receptor (human) (UniProt P47871); assay: cell-based or functional assay
Sequence (P47871 26-477): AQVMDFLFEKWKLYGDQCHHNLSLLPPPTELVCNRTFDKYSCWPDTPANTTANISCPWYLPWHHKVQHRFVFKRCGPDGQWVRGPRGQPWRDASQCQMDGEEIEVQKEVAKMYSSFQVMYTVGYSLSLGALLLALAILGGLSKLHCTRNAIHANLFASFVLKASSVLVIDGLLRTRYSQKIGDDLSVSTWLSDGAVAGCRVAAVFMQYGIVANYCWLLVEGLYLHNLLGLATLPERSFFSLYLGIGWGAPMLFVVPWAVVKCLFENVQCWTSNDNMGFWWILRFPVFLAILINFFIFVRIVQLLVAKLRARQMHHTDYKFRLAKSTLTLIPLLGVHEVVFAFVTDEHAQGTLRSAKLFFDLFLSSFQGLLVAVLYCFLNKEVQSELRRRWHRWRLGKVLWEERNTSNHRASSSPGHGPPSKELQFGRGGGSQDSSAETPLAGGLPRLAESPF

Going from B1 to B2, the Relative cAMP EC50 rises from 1.76 nM to 4.93 nM (2.8-fold).

Compared with B3, B4 is 3.6-fold higher in Relative cAMP EC50: 2.09 nM for the first, 7.61 nM for the second.

Compared with B5, B6 is 2.4-fold lower in Relative cAMP EC50: 12.4 nM for the first, 5.17 nM for the second.

Going from B7 to B9, the Relative cAMP EC50 rises from 2.11 nM to 3.65 nM (1.7-fold).

First: B10
Second: B11
The Relative cAMP EC50 of the first is 2.8-fold lower: 4.18 nM for the first, 11.7 nM for the second.

Compared with B12, B13 is 1.9-fold higher in Relative cAMP EC50: 3.28 nM for the first, 6.32 nM for the second.

B14 and B15 are within 1.5-fold of each other in Relative cAMP EC50: 13.3 nM for the first, 9.71 nM for the second.

B16 and B18 are within 1.5-fold of each other in Relative cAMP EC50: 9.75 nM for the first, 8.2 nM for the second.

In the case of B19, the Relative cAMP EC50 is reported as 3.92 nM.

Going from B8 to B17, the cAMP Rel EC50, nM (1% HSA) rises from 620 nM to 1160 nM (1.9-fold).

target: T1, human GIP receptor (human) (UniProt P48546); assay: cell-based or functional assay
T1 sequence (looked up): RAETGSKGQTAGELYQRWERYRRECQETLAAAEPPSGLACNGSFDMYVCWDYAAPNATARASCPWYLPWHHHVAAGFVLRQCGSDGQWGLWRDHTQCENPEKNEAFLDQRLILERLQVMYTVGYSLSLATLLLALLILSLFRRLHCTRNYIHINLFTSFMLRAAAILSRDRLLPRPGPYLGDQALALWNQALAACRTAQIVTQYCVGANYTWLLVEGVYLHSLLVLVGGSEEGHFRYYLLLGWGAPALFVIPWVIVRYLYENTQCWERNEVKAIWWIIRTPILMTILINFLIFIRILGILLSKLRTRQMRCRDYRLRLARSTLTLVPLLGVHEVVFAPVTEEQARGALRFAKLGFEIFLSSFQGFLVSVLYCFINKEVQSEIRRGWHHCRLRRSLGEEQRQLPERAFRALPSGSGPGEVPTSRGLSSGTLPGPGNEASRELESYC

Going from B1 to B2, the Relative cAMP EC50 rises from 0.0145 nM to 0.124 nM (8.6-fold).

First: B3
Second: B4
The Relative cAMP EC50 of the first is 3.6-fold lower: 0.0264 nM for the first, 0.0939 nM for the second.

B5 and B6 are within 1.5-fold of each other in Relative cAMP EC50: 0.108 nM for the first, 0.096 nM for the second.

Going from B7 to B9, the Relative cAMP EC50 rises from 0.0335 nM to 0.101 nM (3-fold).

B10 and B11 are within 1.5-fold of each other in Relative cAMP EC50: 0.205 nM for the first, 0.183 nM for the second.

Compared with B12, B13 is 3.5-fold higher in Relative cAMP EC50: 0.053 nM for the first, 0.188 nM for the second.

B14 and B15 are within 1.5-fold of each other in Relative cAMP EC50: 0.13 nM for the first, 0.194 nM for the second.

Going from B16 to B18, the Relative cAMP EC50 falls from 0.232 nM to 0.134 nM (1.7-fold).

Work on B19 yielded a Relative cAMP EC50 of 0.174 nM.

Going from B8 to B17, the cAMP Rel EC50, nM (1% HSA) falls from 51.4 nM to 19 nM (2.7-fold).
